According to patent US12534533B2, “Anti-chemokine like receptor 1 humanized antibodies and their therapeutic applications” (OSE IMMUNOTHERAPEUTICS, priority 2019, dated 2026):

What was measured:
Type in all cases: in vivo, mice
[1] = test system: colitis induced by TNBS; test: acute inflammatory colitis model induced by TNBS; details: RvE1 1 μg per mouse daily, 2G1 10 μg per mouse; FIG. 3
Procedure: FIG. 3. Effect of an anti-CMKLR1 antibody on a mice acute inflammatory colitis model induced by TNBS. Mice received 200 μL of the haptenating agent TNBS at 5% in 50% ethanol on day 0 and then were injected with isotype control hIgG1 (10 μg per mouse) (x), RvE1 (1 μg per mouse) daily (●), or 2G1 antibody (10 μg per mouse) three times (□) for 5 days, or non-treated (wild type animals) (▴). Mice were sacrificed colon length was measured in each condition.
Colitis was induced in 8-10 weeks-old-C57Bl/6 male mice by intrarectal injection of 200 μL of the haptenating agent TNBS at 5% in 50% ethanol on day 0. Treatments were injected intra-peritoneally; RvE1 (1 μg per mouse) daily for three days, or 2G1 antibody (10 μg per mouse) twice for 3 days. Colitis follow-up consisting of body weight and stool score (0: normal stool; 4: blood in stool) parameters were performed daily (data not represented). When mice are euthanized, colon length representing the pathology severity was measured.

[2] = test system: AK-7 cells; test: Mesothelioma model survival; details: 1 mg/kg three times a week for 3 weeks starting at d4; vs control antibody; FIG. 30
Procedure: AK-7 cells (3M) were injected in the pleural cavity and mice received either Iso ctrl or 2G1 three times a week for 3 weeks starting at d4 at 1 mg/kg.

[3] = test system: Hepa 1.6 cells; test: Hepatocarcinoma model (HCC), orthotopic murine hepatoma; details: anti-CMKLR1 0.8 mg/kg three times per week, anti-PD1 8 mg/kg, 2 weeks; followed sixty days; FIG. 20
Procedure: FIG. 20. Effect of an anti-CMKLR1 antibody on a Hepatocarcinoma mice model (HCC model). Anti-tumor effect of anti-CMKLR1 antibody (2G1, 0.8 mg/kg) i.p. administration three times a week for 2 weeks in combination (▴) or not (●) with two injections on day 4 and 8 of anti-PD1 mAb (RMP1-14 clone, 8 mg/kg) or with injections (twice a week) of anti-PD-1 antibody alone (Δ). Mice have been treated during 2 weeks in an orthotropic model of murine hepatoma (2.5.10^6 of Hepa 1.6 cells injected through the portal vein on day 0). Isotype control antibody was used at 0.8 mg/kg three times a week for 2 weeks. Mice response were considered partial (PR) when mice survive few days to 1 month after stop of treatment or complete (CR) when mice survive over 1 month or cured when they survive three times longer than the time necessary to all control mice dye.
Method: Mice were anesthetized with a cocktail of xylazine/ketamine. After a laparotomy, tumoral Hepa 1.6 cells were injected in PBS through the portal vein (2.5·10^6 cells/100 μL) in PBS. The treatment was started 4 days after tumor injection. The anti-CMKLR1 antibody (2G1clone) and the hIgG1 istotype control were injected at 0.8 mg/kg three times per week during 2 weeks. The anti-PD1 monoclonal antibody was injected twice a week during 2 weeks intraperitoneally in PBS (8 mg/kg). […]

[4] = test system: psoriasis induced by Aldara cream
Procedure: FIG. 6. Effect of anti-CMKLR1 agonist on an autoimmune disease such as mice psoriasis model. Aldara treated mice for 4 to 6 consecutive days were injected intra-peritoneally with: 2G1 (●) or isotype control antibody (x). A. thicknesses and B weight.
Aldara® cream which is known to induce psoriasis in mice was used on male C57Bl/6 mice (8-10-week old). Mice received a daily topical dose of Aldara. Treatments (anti-CMKLR1 agonist or control compound) were injected intra-peritoneally: […]

[5] = test system: colitis induced by DSS; test: acute inflammatory colitis model induced by DSS
Procedure: FIG. 2. Effect of an anti-CMKLR1 antibody on a mice acute inflammatory colitis model induced by DSS. Mice were injected after 6 days of DSS induction with isotype control hIgG1 (10 μg per mouse) (x), RvE1 (1 μg per mouse) daily (●), or 2G1 antibody (10 μg per mouse) three times (□) for 5 days. Wild type mice, not treated, are represented by an ▾. A. Animal weight loss. B. Animal stool score C. Colon length. D. Resolution index.
Colitis was induced in 8-10 weeks-old-C57Bl/6 male mice by adding 2% (wt/vol) of DSS to the sterile drinking ad libitum water for 6 days. Treatments were injected intra-peritoneally: Isotype control hIgG1 (10 μg per mouse), RvE1 (1 μg per mouse) daily, or 2G1 antibody (10 μg per mouse) three times for 5 days. Colitis follow-up consisting of body weight and stool score (0: normal stool; 4: blood in stool) parameters were performed daily. When mice were euthanized, colon length representing the pathology severity was measured. Resolution index was determined in the different conditions as described in Bannenberg et al., 2005.

[6] = test system: 4T1 cells; test: orthotopic mammary carcinoma model (4T1)
Procedure: FIG. 8. Effect of an anti-CMKLR1 antibody on a 4T1 breast tumor model. Mice were inoculated with 4T1 cells (0.25 million) in the mammary gland. Then the anti-CMKLR1 antibody (2G1) (A. […]B. ●) or an anti-41BB antibody (3H3) (●) or both antibodies (▴) were injected twice at day 4 and day 7 (10 μg/injection) or a control antibody (IgG1 isotype antibody clone 3G8) (x A. and B.) was injected three time a week for three weeks. A. The tumor area was measured 8 days after tumor injection and then every 2 days. B. Tumor lung metastasis was measured by Bioluminescence imaging (BLI) in animals treated with isotype control and anti-CMKLR1 antibody (n=4).
Mice were anesthetized with 3% of isoflurane. Mice were shaved on the abdomen and 4T1 cells (0.25 millions) were injected in the mammary gland with an insulinic syringe (30 Gauges) in 50 μL of PBS. The anti-CMKLR1 antibody (2G1) or an anti-41BB antibody (3H3) or both antibodies were injected twice at day 4 and day 7 (10 μg/injection); a control antibody was injected three times a week for three weeks intraperitoneally in PBS (100 μg/injection). In a second study to measure the lung metastasis following mammary carcinoma development, animals were treated with anti-CMKLR1 antibody at 0.8 mg/kg or control antibody (100 μg/injection) three times a week for three weeks.

B1: 2G1: parental chimeric anti-CMKLR1 antibody: heavy chain variable domain SEQ ID No. 37, light chain variable domain SEQ ID No. 49 (antibody, V domains shown)
VH: EVQLVASGGGLVQPGGSLKLSCAASGFTFSSYGMSWVRQTPDRRLELVATINRYGGSTYYPDSVKGRFTISRDNAKNTLYLQMSSLKSEDTAMYYCPRLIYYGNEGDSWGQGTTLTVSS
VL: QIVLTQSPAIMSASPGEKVTMTCSASSSVSFMHWYQQKSGTSPKRWIYDTTKLTSGVPARFSGSGSGTFYSLTISSMEAEDAATYYCQQWNSKPPLTFGPGTKLELKR
In the case of B1, the colon length [1] is reported as “the same as normal animal”, the survival rate [2] is reported as “higher survival rate” and the “survival rate (treated animals with prolonged survival)” value [3] is reported as 15%. For the same molecule, the “thickness of the skin” value ([4]; after Aldara administration, e.g. day 15, FIG. 6A) was “reduces the thickness of the skin”, the “weight of the animals” value ([4]; mouse, in vivo) was “not impacted” and the stool score ([5]; 0: normal stool, 4: blood in stool, FIG. 2B) was “significantly better”. The Animal weight loss ([5]; 10 μg per mouse i.p. three times for 5 days, vs control antibody or RvE1, FIG. 2A) was “lost significantly less weight”, the “tumor growth (tumor area)” value ([6]; 10 μg/injection at day 4 and day 7, vs isotype control, FIG. 8A) was “did not show any improvement” and the “lung metastasis by bioluminescence imaging” value ([6]; 0.8 mg/kg three times a week for three weeks, vs control antibody, FIG. 8B) was “reduces the lung metastasis”. For the same molecule, the lymph node metastasis ([6]; two animals in the control have metastasis, data not shown) was “no animals treated with the anti-CMKLR1 compound has metastasis”.
